Blank lines part the entries; values can stand above or below the binder they belong to.
How the values were obtained:
[1] = biological target: T1, E. coli MinD, full-length, untagged (E. coli, UniProt P0AEZ3 1-270); test: 90° angle light scattering
T1 sequence: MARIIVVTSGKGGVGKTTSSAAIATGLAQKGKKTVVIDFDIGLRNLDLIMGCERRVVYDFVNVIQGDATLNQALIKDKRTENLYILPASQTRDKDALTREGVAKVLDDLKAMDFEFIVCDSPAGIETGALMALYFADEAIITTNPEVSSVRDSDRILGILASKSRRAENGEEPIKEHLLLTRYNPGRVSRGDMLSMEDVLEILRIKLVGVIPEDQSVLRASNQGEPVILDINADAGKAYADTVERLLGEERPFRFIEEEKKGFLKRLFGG

[2] = biological target: T2, E. coli MinCD copolymeric filaments (pre-formed) (E. coli, UniProt P18196;P0AEZ3); test: electron cryotomography of decorated liposomes
T2 sequence 1: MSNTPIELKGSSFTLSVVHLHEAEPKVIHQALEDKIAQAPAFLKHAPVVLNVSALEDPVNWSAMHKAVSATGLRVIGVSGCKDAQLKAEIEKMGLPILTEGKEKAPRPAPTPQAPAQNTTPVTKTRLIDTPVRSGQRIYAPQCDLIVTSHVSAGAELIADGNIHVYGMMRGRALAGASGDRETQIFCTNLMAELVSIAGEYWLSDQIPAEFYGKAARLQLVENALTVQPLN
T2 sequence 2: T1 sequence

[3] = biological target: the molecule itself; test: co-sedimentation

- binding result [1]: binds
B1: E. coli MinE, full length (natural protein)
chain: MALLDFFLSRKKNTANIAKERLQIIVAERRRSDAEPHYLPQLRKDILEVICKYVQIDPEMVTVQLEQKDGDISILELNVTLPEAEELK

- binding result [2]: binds
B2: E. coli FtsZ (natural protein)
chain: MFEPMELTNDAVIKVIGVGGGGGNAVEHMVRERIEGVEFFAVNTDAQALRKTAVGQTIQIGSGITKGLGAGANPEVGRNAADEDRDALRAALEGADMVFIAAGMGGGTGTGAAPVVAEVAKDLGILTVAVVTKPFNFEGKKRMAFAEQGITELSKHVDSLITIPNDKLLKVLGRGISLLDAFGAANDVLKGAVQGIAELITRPGLMNVDFADVRTVMSEMGYAMMGSGVASGEDRAEEAAEMAISSPLLEDIDLSGARGVLVNITAGFDLRLDEFETVGNTIRAFASDNATVVIGTSLDPDMNDELRVTVVATGIGMDKRPEITLVTNKQVQQPVMDRYQQHGMAPLTQEQKPVAKVVNDNAPQTAKEPDYLDIPAFLRKQAD
- binding result [3]: binds
